Experimental data: patent US20030119145A1
Values joined by “and” are separate entries in the source; they are usually repeats but may differ in a detail not shown here. Identical values can stand only once.

Columns and labels:
[1] = molecular target: CYP52A5A, omega-hydroxylating cytochrome P450 of Candida tropicalis (Candida tropicalis); assay: cell-based or functional assay
cytochrome c [2] = assay: cell-based or functional assay
[3] = molecular target: CYP52A5A, omega-hydroxylating cytochrome P450 of Candida tropicalis
cytochrome c [4] = molecular target: cytochrome c

truncated (soluble) CPRA from Candida tropicalis, produced in Sf9 insect cells (from UniProt P37201 33-680) (enzyme)
Enhancement (%) of hydroxylation of C14 myristic acid, 4 µl sCPR added [1]: 2.4%
Enhancement (%) of hydroxylation of C14 myristic acid, 8 µl sCPR added [1]: 3.4%
Enhancement (%) of hydroxylation of C14 myristic acid, 16 µl sCPR added [1]: 3.4%
Enhancement (%) of hydroxylation of C14 myristic acid, 32 µl sCPR added [1]: 8.1%
Enhancement (%) of hydroxylation of C14 myristic acid, 64 µl sCPR added [1]: 6.9%
enhancement of formation of omega-hydroxylauric acid by CYP52A5A on addition of soluble CPR (TLC autoradiogram) [1]: 4.4 fold
increase of omega-hydroxylauric acid formation on addition of soluble CPR in the presence of membrane associated CPR [1]: 6%
omega-hydroxylauric acid (nmol), CYP52A5A microsomes with soluble CPR added [1]: 0.07 nmol
omega-hydroxylauric acid (nmol), CYP52A5A/CPRA microsomes with soluble CPR added [1]: 0.115 nmol
Sp. Act. (reduction of cytochrome c), soluble fraction of Sf9 cells expressing truncated (soluble) CPRA (cytochrome c [2]): 8.42 µmol/min/mg and 4.4 µmol/min/mg
specific activity (reduction of cytochrome c) relative to microsomes of cells expressing the unmodified CPR (cytochrome c [2]): 20 fold

B1: truncated (soluble) CPRA from Candida tropicalis, produced in Sf9 insect cells (protein)
chain: MDTGFLNTDSGSNSRDVLLTLKKNNKNTLLLFGSQTGTAEDYANKLSRELHSRFGLKTMVADFADYDWDNFGDITEDILVFFIVATYGEGEPTDNADEFHTWLTEEADTLSTLKYTVFGLGNSTYEFFNAIGRKFDRLLSEKGGDRFAEYAEGDDGTGTLDEDFMAWKDNVFDALKNDLNFEEKELKYEPNVKLTERDDLSAADSQVSLGEPNKKYINSEGIDLTKGPFDHTHPYLARITETRELFSSKDRHCIHVEFDISESNLKYTTGDHLAIWPSNSDENIKQFAKCFGLEDKLDTVIELKALDSTYTIPFPTPITYGAVIRHHLEISGPVSRQFFLSIAGFAPDEETKKAFTRLGGDKQEFAAKVTRRKFNIADALLYSSNNAPWSDVPFEFLIENVPHLTPRYYSISSSSLSEKQLINVTAVVEAEEEADGRPVTGVVTNLLKNVEIVQNKTGEKPLVHYDLSGPRGKFNKFKLPVHVRRSNFKLPKNSTTPVILIGPGTGVAPLRGFVRERVQQVKNGVNVGKTLLFYGCRNSNEDFLYKQEWAEYASVLGENFEMFNAFSRQDPSKKVYVQDKILENSQLVHELLTEGAIIYVCGDASRMARDVQTTISKIVAKSREISEDKAAELVKSWKVQNRYQEDVW
Conversion (%) of C14 myristic acid, 4 µl sCPR added to CYP52A5A microsomes [3]: 12.4%
Conversion (%) of C14 myristic acid, 8 µl sCPR added to CYP52A5A microsomes [3]: 13.4%
Conversion (%) of C14 myristic acid, 16 µl sCPR added to CYP52A5A microsomes [3]: 13.4%
Conversion (%) of C14 myristic acid, 32 µl sCPR added to CYP52A5A microsomes [3]: 18.1%
Conversion (%) of C14 myristic acid, 64 µl sCPR added to CYP52A5A microsomes [3]: 16.9%
hydroxylation activity on addition of soluble CPR [3]: increased the hydroxylation activity approximately 5-fold
net counts in product (omega-hydroxylation of [14C]-lauric acid), CYP52A5A microsomes with soluble CPR added [3]: 7930 net counts
net counts in product (omega-hydroxylation of [14C]-lauric acid), CYP52A5A/CPRA microsomes with soluble CPR added [3]: 13200 net counts

B2: polyhistidine tagged soluble CPRA from Candida tropicalis, produced in E. coli (pET15b) (protein)
chain: MHHHHHHSSGLVPRGSHMDTGFLNTDSGSNSRDVLLTLKKNNKNTLLLFGSQTGTAEDYANKLSRELHSRFGLKTMVADFADYDWDNFGDITEDILVFFIVATYGEGEPTDNADEFHTWLTEEADTLSTLKYTVFGLGNSTYEFFNAIGRKFDRLLSEKGGDRFAEYAEGDDGTGTLDEDFMAWKDNVFDALKNDLNFEEKELKYEPNVKLTERDDLSAADSQVSLGEPNKKYINSEGIDLTKGPFDHTHPYLARITETRELFSSKDRHCIHVEFDISESNLKYTTGDHLAIWPSNSDENIKQFAKCFGLEDKLDTVIELKALDSTYTIPFPTPITYGAVIRHHLEISGPVSRQFFLSIAGFAPDEETKKAFTRLGGDKQEFAAKVTRRKFNIADALLYSSNNAPWSDVPFEFLIENVPHLTPRYYSISSSSLSEKQLINVTAVVEAEEEADGRPVTGVVTNLLKNVEIVQNKTGEKPLVHYDLSGPRGKFNKFKLPVHVRRSNFKLPKNSTTPVILIGPGTGVAPLRGFVRERVQQVKNGVNVGKTLLFYGCRNSNEDFLYKQEWAEYASVLGENFEMFNAFSRQDPSKKVYVQDKILENSQLVHELLTEGAIIYVCGDASRMARDVQTTISKIVAKSREISEDKAAELVKSWKVQNRYQEDVW
Sp. Act. (reduction of cytochrome c), E. coli extract (cytochrome c [4]): 5.3 µmol/min/mg
Sp. Act. (reduction of cytochrome c), concentrated & dialyzed purified protein (cytochrome c [4]): 420 µmol/min/mg

B3: soluble CPRA from Candida tropicalis produced in E. coli (pProEX-1), his-tag removed with TEV protease (protein)
chain: DTGFLNTDSGSNSRDVLLTLKKNNKNTLLLFGSQTGTAEDYANKLSRELHSRFGLKTMVADFADYDWDNFGDITEDILVFFIVATYGEGEPTDNADEFHTWLTEEADTLSTLKYTVFGLGNSTYEFFNAIGRKFDRLLSEKGGDRFAEYAEGDDGTGTLDEDFMAWKDNVFDALKNDLNFEEKELKYEPNVKLTERDDLSAADSQVSLGEPNKKYINSEGIDLTKGPFDHTHPYLARITETRELFSSKDRHCIHVEFDISESNLKYTTGDHLAIWPSNSDENIKQFAKCFGLEDKLDTVIELKALDSTYTIPFPTPITYGAVIRHHLEISGPVSRQFFLSIAGFAPDEETKKAFTRLGGDKQEFAAKVTRRKFNIADALLYSSNNAPWSDVPFEFLIENVPHLTPRYYSISSSSLSEKQLINVTAVVEAEEEADGRPVTGVVTNLLKNVEIVQNKTGEKPLVHYDLSGPRGKFNKFKLPVHVRRSNFKLPKNSTTPVILIGPGTGVAPLRGFVRERVQQVKNGVNVGKTLLFYGCRNSNEDFLYKQEWAEYASVLGENFEMFNAFSRQDPSKKVYVQDKILENSQLVHELLTEGAIIYVCGDASRMARDVQTTISKIVAKSREISEDKAAELVKSWKVQNRYQEDVW
specific activity in reduction of cytochrome c (cytochrome c [4]): 198 U/mg

B4: full-length, membrane associated CPRA (NADPH-cytochrome P450 reductase) from Candida tropicalis (protein)
chain: MALDKLDLYVIITLVVAVAAYFAKNQFLDQPQDTGFLNTDSGSNSRDVLLTLKKNNKNTLLLFGSQTGTAEDYANKLSRELHSRFGLKTMVADFADYDWDNFGDITEDILVFFIVATYGEGEPTDNADEFHTWLTEEADTLSTLKYTVFGLGNSTYEFFNAIGRKFDRLLSEKGGDRFAEYAEGDDGTGTLDEDFMAWKDNVFDALKNDLNFEEKELKYEPNVKLTERDDLSAADSQVSLGEPNKKYINSEGIDLTKGPFDHTHPYLARITETRELFSSKDRHCIHVEFDISESNLKYTTGDHLAIWPSNSDENIKQFAKCFGLEDKLDTVIELKALDSTYTIPFPTPITYGAVIRHHLEISGPVSRQFFLSIAGFAPDEETKKAFTRLGGDKQEFAAKVTRRKFNIADALLYSSNNAPWSDVPFEFLIENVPHLTPRYYSISSSSLSEKQLINVTAVVEAEEEADGRPVTGVVTNLLKNVEIVQNKTGEKPLVHYDLSGPRGKFNKFKLPVHVRRSNFKLPKNSTTPVILIGPGTGVAPLRGFVRERVQQVKNGVNVGKTLLFYGCRNSNEDFLYKQEWAEYASVLGENFEMFNAFSRQDPSKKVYVQDKILENSQLVHELLTEGAIIYVCGDASRMARDVQTTISKIVAKSREISEDKAAELVKSWKVQNRYQEDVW
net counts in product (omega-hydroxylation of [14C]-lauric acid), CYP52A5A/CPRA microsomes without soluble CPR [3]: 12400 net counts
